From US20260356955 (published 2026) come the findings set out here.

T1: cynomolgus KLRB1 on CHO-K1 (cynomolgus)
T1 chain: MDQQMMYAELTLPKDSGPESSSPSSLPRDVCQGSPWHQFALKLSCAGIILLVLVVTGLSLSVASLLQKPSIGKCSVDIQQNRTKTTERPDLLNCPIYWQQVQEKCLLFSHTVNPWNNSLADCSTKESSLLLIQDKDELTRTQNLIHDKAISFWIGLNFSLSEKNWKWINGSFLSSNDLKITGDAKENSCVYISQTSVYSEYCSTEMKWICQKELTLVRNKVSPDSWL

B1: 5A11D10 chimeric (antibody, V domains shown)
VH: DVQLQESGPGQVKPSQSLSLTCTVTGYSLTSDFAWNWIRQFPGNKLEWMGDIRYSGSTDYNPSLKTRSSITRDTSKNQFFLHLNSVTTEDTATYYCARGGYYGYDEGYPMDYWGQGTSVTVSS
VL: NIVLTQSPASLAVSLGQRATISCRASESVDVYGNSFMHWYQQKAGQPPKLLIYLAFNLKSGVPARFSGSGSRTDFTLTIDPVEADDAATYYCQQNNEDPFTFGSGTKLEIK
B2: 92E12F2 (antibody, V domains shown)
VH: DVQLQESGPGLVKPSQSLSLTCSVTGYSITSGYYWNWIRQFPGNKLEWLGYISYDGSNNDNPSLTNRISISRDTSRNQFFLKFNSVTTDDSATYYCARGDFYGYVYWGQGTTLTVSS
VL: DIVLTQSPASLAVSLGQRATISCRASKSVSSSGYTYLHWYQQKPGQPPKLLIYLTSNLDSGVPARFSGSGSGTDFTLNIHPVEEEDAATYYCQHSRELPRTFGGGTKLEIK
B3: 57E2E4 chimeric (antibody, V domains shown)
VH: DVQLQESGPGLVKPSQSLSLTCSVTGYSISSGYYWNWIRQFPGNKLEWMAYISYDGSNNYNPSLKNRVSITRDTSKNQFFLRLNSVTAEDTATYYCTRGDFYGYVYWGQGTTLTVSL
VL: B2 VL with S28R, S31T, G33D, T35S, L37M, T55A, D59E, L98F
B4: 62H1D6 (antibody, V domains shown)
VH: QVQLQQSGPELVRPGVSVKISCKGSGYTFTDYAMHWVKQSHAKSLEWIGVISTYYGNTNYNQKFKGRATMTVDKSSSTAYMELARLTSEDSAIYYCAREYGNYPYYYAMDYWGQGTSVTVSS
VL: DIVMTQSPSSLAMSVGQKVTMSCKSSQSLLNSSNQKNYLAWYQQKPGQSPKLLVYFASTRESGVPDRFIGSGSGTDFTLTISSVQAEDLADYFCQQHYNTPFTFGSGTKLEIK
B5: 13H2D11 (antibody, V domains shown)
VH: QVQLQQPGAELVRPGASVKLSCKASGYSFTSYWMNWVKQRPGQGLEWIGMIHPSDSETRLNQKFKDKATLTVDKSSSTAYMQLSSPTSEDSAVYYCASEGFRRGSFAYWGQGTLVTVSA
VL: not shown
B6: 5B1B11 chimeric (antibody, V domains shown)
VH: QVQLQQPGAELVKPGASVKLSCKASGYTFTNYWMHWVKQRPGQGLEWIGEINPSNGRTNFNEKFKSKATLTVDKSSSTAYMQLSSLTSEDSAVYYCARSYDSYYAAVDYWGQGTSVTVSS
VL: QIVLTQSPAIMSASLGEEITLTCSASSSVSYMHWYQQKSGTSPKLLIYTTSNLPSGVPSRFSGSGSGTFYSLTISSVEAEDAADYYCHQWSTYPYTFGGGTKLEIK
B7: 52G9B12B5 chimeric (antibody, V domains shown)
VH: QVQLQQSGAELMQPGTSVKIPCKATGYTFSSFWMEWVKQRPGHGLEWIGEIFPGSGSTNYNEKFKGKATFTADTSSNTAYMQLSSLTSEDSAVYYCATLITTGLTYWGQGTLVTVSA
VL: NIVMTQSHKFMSTSVGDRVSITCKASQDVNTAVAWYQQIPGRSPKLLIYWASTRHTGVPDRFTGSGSGTDYTLTISSVQAEDLAFYYCQQHYRIPFTFGAGTKLELK
B8: 66G9C11 (antibody, V domains shown)
VH: HVQLQQSGPELVRPGASVKLSCKASGYIFFTFWMNWVKQRPGQGLEWIGQIFPASGSTNYNEMFEGKATLTVDTSSSTAYMQLSSLTSEDSAVYYCASLERAWFAYWGQGTLVTVSA
VL: DIVLTQSPATLSVTPGDRVSLSCRASQSINNYLHWYQQKSHESPRLLIKYASQSISGIPSRFSGSGSGADFTLSINSVETEDFGMYFCQQSNSWPPTFGGGTKLEIK
B9: 9C10G11 (antibody, V domains shown)
VH: QVQLKESGPGLVAPSQSLSITCTVSGFSLTGYGVNWVRQPPGKGLEWLGMIWGDGSTDYNSALKSRLSISKDNSKSQVFLKMNSLQTDDTARYYCARTYNNYHYWYFDVWGAGTTVTVSS
VL: DIQMTQSPASLSASVGETVTITCRASGNIHNYLAWYQQKQGKSPQLLVYNAKTLADGVPSRFSGSGSGTQYSLKINSLQPEDFGSYYCQHFWSTPYTFGGGTKLEIK
B10: 37G6A7 (antibody, V domains shown)
VH: B9 VH with G31D, S68T, N100G, N101T
VL: B9 VL with N50I, S85T
B11: 39C5D6 (antibody, V domains shown)
VH: B9 VH with G31D, P40T, S61L, A62P, S70T, N100A
VL: B9 VL with A55E, E81D, S85N, Y87F
B12: 7B6C7 chimeric (antibody, V domains shown)
VH: B9 VH with T30N, G31D, G44A, S68T, S70T, Q86H, Y94F, N101Y
VL: B9 VL with A34S, K52E, S77N
B13: Hu50A8F2-15 (antibody, V domains shown)
VH: QVQLVQSGAEVKKPGASVKVSCKASGYTFIDYYINWVRQAPGQGLEWIGWIFPGSGHTKYNENFKGKVTLTVDTSTSTVYMELSSLRSEDTAVYFCARGDRSALGYFDYWGQGTTVTVSS
VL: DIQLTQSPSSLSASVGDRVTITCTASSSVSSTYLHWYQQKPGKSPKLLIYSTSNLASGVPSRFSGSGSGTDYTLTISSLQPEDFATYYCHQYHRSPLTFGQGTKLEIK
B14: Hu50A8F2-05 (antibody, V domains shown)
VH: B13 VH with I48M, L70M, F95Y
VL: B13 VL with L4M, S44A, Y72F
B15: Hu50A8F2-12 (antibody, V domains shown)
VH: B13 VH with I48M, F95Y
VL: B13 VL with F84A
B16: Hu50A8F2-16 (antibody, V domains shown)
VH: B13 VH
VL: B13 VL with F84A
B17: Hu50A8F2-09 (antibody, V domains shown)
VH: B13 VH with I48M, F95Y
VL: B13 VL with L4M, S44A, Y72F
B18: Hu50A8F2-13 (antibody, V domains shown)
VH: B13 VH
VL: B13 VL with L4M, S44A, Y72F
B19: Hu50A8F2-11 (antibody, V domains shown)
VH: B13 VH with I48M, F95Y
VL: B13 VL
B20: Hu50A8F2-02 (antibody, V domains shown)
VH: B13 VH with I48M, K67R, L70M, V72R, F95Y
VL: B13 VL with L4M, S44A
B21: Hu50A8F2-07 (antibody, V domains shown)
VH: B13 VH with I48M, L70M, F95Y
VL: B13 VL
B22: Hu50A8F2-10 (antibody, V domains shown)
VH: B13 VH with I48M, F95Y
VL: B13 VL with L4M, S44A
B23: Hu50A8F2-08 (antibody, V domains shown)
VH: B13 VH with I48M, L70M, F95Y
VL: B13 VL with F84A
B24: Hu50A8F2-14 (antibody, V domains shown)
VH: B13 VH
VL: B13 VL with L4M, S44A

Numbering of substitutions follows the chain as printed.

In general, Kd refers to the equilibrium constant for the complex coming apart. The term EC50 denotes the concentration needed to bring the measured effect to its halfway point. Low values mean higher potency in that assay, high ones lower potency in that assay.

Sequence of human KLRB1 on CHO-K1 (human) (chain, as listed by the source): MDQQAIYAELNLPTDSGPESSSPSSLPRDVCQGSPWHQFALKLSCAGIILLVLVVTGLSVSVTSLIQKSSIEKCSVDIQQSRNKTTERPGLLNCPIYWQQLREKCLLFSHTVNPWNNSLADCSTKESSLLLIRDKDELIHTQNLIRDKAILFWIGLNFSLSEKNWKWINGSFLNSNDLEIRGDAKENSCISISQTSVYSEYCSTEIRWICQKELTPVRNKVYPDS

One assay deals with human KLRB1 ECD (human). Kind of assay: SPR. (Surface plasmon resonance follows binding to a sensor surface in real time, without labels.)
Sequence of human KLRB1 ECD (human) (chain, as listed by the source): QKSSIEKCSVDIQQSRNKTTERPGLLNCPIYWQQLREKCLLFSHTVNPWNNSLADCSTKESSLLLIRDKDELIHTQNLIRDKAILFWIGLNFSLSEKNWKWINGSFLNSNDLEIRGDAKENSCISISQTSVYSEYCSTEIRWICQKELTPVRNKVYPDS
As for B1, the Kd was 0.0591 nM.
Still for that read-out and setting: under B2 stands 3.33 nM; under B3, 0.575 nM.
Same read-out and setting: to B4 belongs 7.03 nM; to B5, 17.1 nM; to B6, 0.255 nM.
Still for that read-out and setting: under B7 stands 4.4 nM; under B8, 6.38 nM; under B9, 14.8 nM.
The molecule B10 showed a Kd of 23.3 nM.
Still for that read-out and setting: under B11 stands 1.21 nM; under B12, 0.0147 nM.

A further assay has as its target human KLRB1 on CHO-K1 (human). Kind of assay: FACS.
For B13, a half-maximal effect (EC50) was put at 5.39 nM.
For the molecule B14, a half-maximal response (EC50) required 5.51 nM.
The same measure, in the same setting: under B15 stands 5.77 nM.
On the same count and under the same terms, under B16 stands 5.27 nM.
Still for that read-out and setting: under B17 stands 5.4 nM; under B18, 5.06 nM; under B19, 5.43 nM.
For B20, the EC50 was 5.81 nM.
Same read-out and setting: to B21 belongs 5.72 nM; to B22, 5.67 nM.
Same read-out and setting: to B23 belongs 5.44 nM; to B24, 5.12 nM.

Another assay has as its target T1, cynomolgus KLRB1 on CHO-K1. Kind of assay: FACS. (In general: A flow cytometer gives signals particle by particle.)
For the molecule B13, the binding result was “no binding”.
Same read-out and setting: under B14 stands “no binding”.
Same read-out and setting: to B15 belongs “no binding”.
For B16, the binding result is listed as “no binding”.
In the case of B17, the binding result is “no binding”.
Same read-out and setting: under B18 stands “no binding”; under B19, “no binding”; under B20, “no binding”.
Same read-out and setting: to B21 belongs “no binding”.
Same read-out and setting: to B22 belongs “no binding”.
For the molecule B23, the binding result is on record as “no binding”.
Still for that read-out and setting: to B24 belongs “no binding”.

The target of the next assay is human KLRB1 ECD (human). Kind of assay: ELISA. For orientation: ELISA stands for enzyme-linked immunosorbent assay.
With B13, a half-maximal response (EC50) required 0.0148 nM.
The same measure, in the same setting: to B14 belongs 0.0183 nM; to B15, 0.014 nM; to B16, 0.0103 nM.
B17 showed an EC50 of 0.0189 nM.
In turn, B18 came in with an EC50 of 0.0104 nM.
In turn, B19 registered an EC50 of 0.0144 nM.
With B20, the EC50 amounted to 0.0167 nM.
Same read-out and setting: under B21 stands 0.0174 nM; under B22, 0.0187 nM.
The same measure, in the same setting: under B23 stands 0.0111 nM.
Same read-out and setting: to B24 belongs 0.0121 nM.
